# Source: the DeepSol protein solubility set
# Experiment: soluble on expression in E. coli; label from the status in PepcDB or PDB records
row,Sequence,soluble on expression in E. coli
1,MKKTLTSPLVAAIAHTAAPVHAGTLEDVKARGNLLCSSTTGSPGFSMPDDAGKRHGLEVDVCRAIATAVFGDPERHKIVVLNPIQRFTALQSGEVDILFNTTTWTLSREGAGALYAGVTYYDGQGVLVRKGTIASAKELDGGAICTNQGSTTELNLVDFFRANKVSNEVITFATVQEAANAYESGRCDAWSADAGILAALRSKMKAPDDHVILADRLSKEPLGAAVRKGDDAWFSVVRWSIFALQAAEELGLTSKNIAEQAKSTTNPEVLRFVGKEGSLGKVLGLNGDWAYQIVAQVGSYAEIFDRNIGAASPLNLERGINASWKNGGLFYTPPFR,not soluble
2,MKKVSIIIPFKGQTEAELMLPLSSIYNQIGVDLSQLDIHLVNDGGKTIDLSKFDVLADRLEIHYHEIPNGGPGVARQYGIDNSISEYIMFIDADDVLYYVGALWPFYNASNQGHQMIRASYWEQIAGNPYTYTVHGNGDRKAAYGKWYKRSYIEMLGLRFMPDLPIYEDTYFVGLACELATDTCFLEEKVYMWLANPNSITRTVENKFNYQAHIYARENRYWFEMIRKWKPECLVTDFENYLTNMYLKSQKYPPVDEKAWWEEQHKLITSVSDIFSGWTQELQKQVELEHHHHHH,not soluble
3,MKKWAVWLCSLLLLLPLSACTNDGGQSEKPLKKVRLAEVTHSIFYAPQYVALAKGFFKEEGLDVELTTTWGGDKTMTTLLSGGADIALVGSETSIYVYSQGTDDPVINFAQLTQTDGTFLVSRKKIGHFTWEMLKGSTFLGQRKGGMPQMVGEFVLKKHGIDPHQDLKLIQNVDFANIANAFASGTGDFVQLFEPTASLFEQEGKGYIVASFGTESGRVPYTSYMAKRSYMNENKDVIEKFTRAIYKAQQWVESHSAAEIAKAIQPYFKDTDSAIIEKVVERYKSQGTYATDPILDEEEWNNLQTIMAEAGELPKRIDLNTLVDSSFAKNAMND,not soluble
4,MKLALTLEADSVNVQALNMGRIVVDVDGVNLSELINKVSENGYSLRVVDKSDQHATSTPPPLTTLTCIRCSTAHITETDNAWLYSLSHQTNDDGETEWIHFTGSGYLLRTDAWSYPVLRLKRLGLSRTFRRLVVTLTRRYGVSLIHLDAGAECLPGFPTFDW,not soluble
5,MKLERQKLLAKVAYLYYMEGKSQSEIANELGIYRTTISRMLAKAREEGLVRIEISDFNPEIFQLESYFKSKYHLKDIEIVSSRKDSDTSEIEKDLAHVAAAMIRKKIKENDKVGIAWGRTLSKVVEAMRPHPVSQVSFVPLAGGPSHINARYHVNTLVYEMSRRFQGSCTFINATLVQENANLAKGILTSKYFEGLMDNWEKLDVAIVGVGGKPKSNEQQWLDLLNQDDFQCLDEEAAVGEITCRFFNHSGDPVNQHLAKRTIGITLEQLQKVPNRIAVAHGNYKAAALLAVLKKGYINHLVTDFSTALNILRLDKDTFVDTIYQKS,not soluble
6,MKLGFIGLGIMGSPMAINLARAGHQLHVTTIGPVADELLSLGAVNVETARQVTEFADIIFIMVPDTPQVEDVLFGEHGCAKTSLQGKTIVDMSSISPIETKRFAQRVNEMGADYLDAPVSGGEIGAREGTLSIMVGGEQKVFDRVKPLFDILGKNITLVGGNGDGQTCKVANQIIVALNIEAVSEALVFASKAGADPVRVRQALMGGFASSRILEVHGERMINRTFEPGFKIALHQKDLNLALQSAKALALNLPNTATCQELFNTCAANGGSQLDHSAMVQALELMANHKLS,soluble
7,MKLGVVTRKGKRQDDIRMFSQFFEVKVYEIPEELPELIDEPAEILRLPDDFDVDMIVSFAAHPDINLELIKQAAERGIGLVIISGGAKGGAYKQLKEEGEKRGVRVVWEEICCATPKVEDERTREFFEHFGAPEVEVEVENGKVKDVRVKRSAFCGATYYVAEKIKGLSVEEAPTKAGYYTQIYPCLAPRGHEGGIHKAARAHKRAVEKAIEKSK,not soluble
8,MKLIGITGMPGSGKSAITKLAEKYKIVVVSMGDVVRYETLKQGMPLNPENVGNTAVKLREIYGKEAIAVPCLNYVNEKYNNEDFVIIEGIRSIYEVNYIKKHAELDIIAIHSSPKTRFERLSGRNREDDSNDWNTFVERDERELNFSIGRVISLADYMVVNEGNYMDFVNDLENTFKKIINVN,not soluble
9,MKLIITSGGTTEPIDAVRGITNHSTGQLGKLITERFLQYHHDVTLVTTKTATKPLPNKRLRIIEVETVNDLMAALKDQVPHHDILIHSMAVSDYTPVYMTDLEQVSQADNLNCFLCEHNSEPKISSASDYQVLFLKKTPKVISYVKQWNPNIKLVGFKLLVNVPQEELIKVARASLAKNHADYILANDLVDIQTGMHKALLISNNEVASADTKEAIADLLYERMTKHD,not soluble
